From publication PMC3687597 (Clinical and Developmental Immunology, 2013)

Target: T1, anthrax lethal factor (LF) (Bacillus anthracis, strain , UniProt P15917)
T1 construct: source: purified; produced in Dr. Nick Duesbery's lab at Van Andel Research Institute
Assay: ELISA
Conditions: both partners purified

T1 sequence (P15917 34-809): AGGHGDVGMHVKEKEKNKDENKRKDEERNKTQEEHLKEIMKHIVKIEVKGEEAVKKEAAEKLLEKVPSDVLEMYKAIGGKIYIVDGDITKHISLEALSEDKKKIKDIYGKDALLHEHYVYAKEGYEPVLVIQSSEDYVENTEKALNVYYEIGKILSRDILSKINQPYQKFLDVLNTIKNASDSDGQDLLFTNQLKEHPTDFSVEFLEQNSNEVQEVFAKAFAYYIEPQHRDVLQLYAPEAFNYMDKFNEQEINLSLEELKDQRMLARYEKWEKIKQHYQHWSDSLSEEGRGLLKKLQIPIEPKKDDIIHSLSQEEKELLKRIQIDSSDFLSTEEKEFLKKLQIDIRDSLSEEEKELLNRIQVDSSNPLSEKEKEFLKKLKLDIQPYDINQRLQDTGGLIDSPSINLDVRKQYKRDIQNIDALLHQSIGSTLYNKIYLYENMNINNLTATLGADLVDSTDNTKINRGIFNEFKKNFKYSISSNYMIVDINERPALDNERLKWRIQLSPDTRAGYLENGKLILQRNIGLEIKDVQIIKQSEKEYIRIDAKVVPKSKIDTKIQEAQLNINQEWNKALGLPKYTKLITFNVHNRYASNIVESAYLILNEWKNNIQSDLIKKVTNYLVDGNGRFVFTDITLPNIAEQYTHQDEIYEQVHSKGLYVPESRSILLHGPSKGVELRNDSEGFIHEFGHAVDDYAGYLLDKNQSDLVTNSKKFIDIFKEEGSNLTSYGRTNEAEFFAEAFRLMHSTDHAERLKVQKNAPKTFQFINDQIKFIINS

B1:  (Fab, V domains shown)
VH: EVQLQQSGAELVKPGASVKLSCTASGFNIKDSYMHWVKQRPEQGLEWIGRIDPANGNTKYDPKFQGKATITVDTSSNTAYLQLSSLTSEDTAVYYCTRLDYWGQGTTLTVS
VL: ENVLTQSPAIMSASLGEKVTMSCRASSSVNYMYWYQQKSDASPKLWIYSTSNLAPGVPARFSGSGSGNSYSLTISSMEGEDAATYYCQQFTSSPSALTFGAGTKLEIK
notes: also called LF8-Fab; chimeric anti-LF Fab
Ka: 3.46e+07 M⁻¹
